Results taken from patent US20090305963A1, “Lipocalin 2 for the Treatment, Prevention, and Management of Cancer Metastasis, Angiogenesis, and Fibrosis” (priority 2005, published 2009).

System: VEGF mRNA
Experiment: VEGF mRNA by semi-quantitative RT-PCR in 4T1 cells
Assay type: cell-based, mouse
Settings: RL vs R cells
Experimental: For VEGF assays, two μg of each RNA sample was reverse transcribed using oligo-dT priming and control reaction was prepared for every sample where the reverse transcriptase was omitted. PCR was performed using Taq DNA polymerase (Qiagen) using primers for mouse VEGF (5′-GTACCTCCACCATGCCAAGT-3′, SEQ ID NO: 10, and 5′-GCGAGTCTGTGTTTTTGCAG-3′ SEQ ID NO: 11), GAPDH (5′-ACAGTCTTCTGAGTGGCA-3′ SEQ ID NO: 6 and 5′-CCCATCACCATCTTCCAG-3′, SEQ ID NO: 7) for DNA amplification. PCR amplification was achieved by initial 94° C. incubation for 5 minutes followed by 25 cycles of 94° C. for 30 seconds, 58° C. for 30 seconds and 72° C. for 30 seconds, with 72° C. for 7 minutes as an extension time. These PCR conditions were established for DNA amplification in the linear range. PCR products were analyzed on 1.5% agarose gels.

B1: lipocalin 2: human lipocalin 2 cDNA (HA tagged) in pcDNA3.1, stably expressed in 4T1-ras cells (RL clone); iron-siderophore binding protein (protein, UniProt P80188 21-198, looked up)
Neutrophil …: QDSTSDLIPAPPLSKVPLQQNFQDNQFQGKWYVVGLAGNAILREDKDPQKMYATIYELKEDKSYNVTSVLFRKKKCDYWIRTFVPGCQPGEFTLGNIKSYPGLTSYLVRVVSTNYNQHAMVFFKKVSQNREYFKITLYGRTKELTSELKENFIRFSKSLGLPENHIVFPVPIDQCIDG
modifications: HA tag
ras-augmented VEGF mRNA level: reduced this upregulation
